# Data taken from patent US20250051458A1, “Methods for Treating Neurodegeneration Targeting IGF1/IGF1R” (The Schepens Eye Research Institute, Inc., priority 2021, published 2025).
# Legend:
# retinal microglia = assay: Proteome profiler mouse cytokine array on supernatants of LPS-treated retinal microglial cultures; format: cell-based; details: IGFBPL1 400 ng/ml added 6 hr after LPS 1 μg/ml; total 48 hours
# Protocol: Retinal microglia isolation started from dissecting retinas out from CX3CR1/GFP mice. The single cell suspension was obtained followed by papain digestion (20 units; Worthington, Lk003150). Tap every 3-5 mins until completely digested and then add equal volume of inhibitor to neutralize the reaction. Then the supernatants were removed by centrifuge at 300 g for 8 mins. Resuspend retinal cell pellets from CX3CR1/GFP mice into cell staining buffer (BioLegend, 420201) with pacific blue anti-mouse CD11b primary antibody (Biolegend, 101224). […]
# As described above, microglial cells were sorted from CX3CR1/GFP mice as described above. […] The array membranes were imaged with iBright CL1500 imaging system (ThermoFisher Scientific, USA) and the results were analyzed using ImageJ software.
# To investigate if IGFBPL1 directly mediates microglial function, we studied gene profiling changes in isolated microglial cultures treated by IGFBPL1. Retinal microglia were purified from mice expressing green fluorescence protein (GFP) driven under a microglial specific promoter Cx3cr1 (Cx3cr1-Gfp) using fluorescence-activated cell sorting (FACS)^12. […] This effects of IGFBPL1 on suppressing microglial activation were verified by cytokine arrays, which measured 36 mouse pro-inflammatory cytokines, chemokines from supernatants of microglial cultures. […]
# BV2 microglia = assay: Western blot of PI3K phosphorylation in BV2 microglia; format: cell-based, mouse
# Protocol: For WB, mouse BV2 cell line was used in this study. It was purchased from ATCC (CRL-2469), and was cultured in DMEM (Thermo Fisher Scientific, Cat. No. 11885084) supplemented with 10% FBS at 37° C. with 5% C02. The medium was changed every 3 days. Cells were then seeded onto 6-well plates and stimulated with LPS (Sigma, Cat #L6529-1MG) for 6 hours and followed by IGFBPL1 (400 ng/ml, R&D system, 4130-BL) and/or IGF1 analog (10 uM, BACHEM, H-1356, Cat. No. 4018631) or NBI-31772 (10 μM, EMD Millipore, Cat. No. 479830). Cells were harvested 48 hrs for following western blotting.
# WB was performed as previously noted^29. Cell or tissue samples were sonicated in a cold RIPA buffer supplemented with a 1:100 FAST protease inhibitor (S8830, Sigma-Aldrich, St Louis, MO, USA). […] The total Protein concentration of resulting supernatants was determined using the Qubit 4 Fluorometer (Thermo Fisher Scientific, Waltham, MA, USA). […] Signals were developed with ECL using a Super Signal West Pico kit (Thermo Fisher Scientific, Waltham, MA, USA) and detected with iBright CL 1500 (Thermo Fisher Scientific, Waltham, MA, USA). […] All the quantification results were averaged from three protein blots and expressed as the mean ratio of the values (target protein/housekeeping protein)±standard deviation (SD). […]
molecule,measurement,setting,value
"IGFBPL1: insulin-like growth factor binding protein like protein 1; recombinant protein (R&D system, 4130-BL) (protein) LGLRDAGRRHPECSPCQQDRCPAPSPCPAPWISARDECGCCARCLGAEGASCGGPVGSRCGPGLVCASRASGTAPEGTGLCVCAQRGAVCGSDGRSYSSICALRLRARHAPRAHHGHLHKARDGPCEFAPVVLMPPRDIHNVTGTQVFLSCEVKAVPTPVITWKKVKHSPEGTEGLEELPGDHVNIAVQVRGGPSDHETTSWILINPLRKEDEGVYHCHAANAIGEAQSHGTVTVLDLNRYKSLYSSVPGDLL","Reversal of LPS-induced inflammatory cytokines (cytokine array, 36 cytokines/chemokines)",retinal microglia,completely reverted the LPS-induced inflammatory cytokines to the control levels
same,Increase in PI3K phosphorylation,BV2 microglia; IGFBPL1 added 6 hr after LPS challenge,8 fold
same,"PI3K signaling, individual treatment","BV2 microglia; IGFBPL1 alone, no LPS",did not alter PI3K signaling
